# ± gives the standard deviation of the averaged measurements.
# Tested on: ATP
# Test: switch fluorescence ratio, 500 uM ATP over buffer (Cy3 cluster intensity, sum of 5 cycles each) (fold (ratio)); higher = stronger signal-on switching upon ATP binding; sequences stand for … in TCGTCGGCAGCGTCAGATGTGTATAAGAGACAGTTTTTTTTTTTTTTTTTTTTTTTTT…TC
# Settings: aptamer strand: ATP DNA aptamer (quencher-CACCTGGGGGAGTATTGCGGAGGAAGG + anchor), 100 nM annealed; ATP concentration: 500 uM
# Outline: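 The fluorescence ratio divides summed target-cycle Cy3 intensity by summed buffer-cycle Cy3 intensity for each cluster and is averaged per switch-domain sequence. Cy3-labelled switching-strand clusters on a modified Illumina MiSeq flow-cell were annealed to 100 nM quencher-labelled ATP aptamer, then imaged in selection buffer and again after 15 min with 500 uM ATP at 22 °C. Five such cycles were run, with NaOH stripping and re-annealing between them, and clusters outside 100-1000 RFU were excluded.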
# 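Also: ATP exposure 15 min at 22 °C before imaging.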
row,Sequence,switch fluorescence ratio
1,GGTTCAGGGC,1.02 ± 0.047
2,GTTGAGAGTT,1.01 ± 0.015
3,CAACATGTTT,1.02 ± 0.03
4,CGGGGAGACG,0.929 ± 0.13
5,TCTGTAAATT,0.991 ± 0.03
6,GAGTGCTTAA,0.971 ± 0.022
7,ACTTACTTTA,1.18 ± 0.04
8,GATAAGAGCC,1.008 ± 0.0024
9,CGTTGAATAA,1.017 ± 0.0089
10,TCCTTGTAAG,1.01 ± 0.03
11,AGAATGTTTC,0.973 ± 0.021
12,GAATTAGGGA,1.01 ± 0.018
13,GGATTTGGTG,1 ± 0.012
14,GACCTATTCG,1.01 ± 0.018
15,GAACTTGATG,0.997 ± 0.036
16,CTGGGACAGT,0.995 ± 0.034
17,GAGACCGTGT,1.01 ± 0.052
18,TATTTATGGG,0.978 ± 0.023
19,ACTGTGCGTA,1.03 ± 0.054
20,TTCTCGGGCT,0.994 ± 0.031
21,ACGTCTACTC,1.37 ± 0.1
22,AAATAGAAAT,0.96 ± 0.011
23,ACGCCTTAGG,1.05 ± 0.038

row,Sequence,switch fluorescence ratio
1,TAGAGGGGTG,0.991 ± 0.0026
2,CCTTGCCGGT,1.022 ± 0.0094
3,AAAACTTTGA,1 ± 0.017
4,GAGCAAGAGT,1.8 ± 0.046
5,TTTAAGCTAA,1.13 ± 0.23
6,GGGAGCCCCA,1.04 ± 0.039
7,GTCAGTGAAT,0.988 ± 0.057
8,GACTCTAGGA,1.064 ± 0.0025
9,AAGCGCCCGG,1.05 ± 0.04
10,AGATAGGTGT,1.079 ± 0.003
11,TTGTTTTAC,1.05 ± 0.067
12,ATTCGATATA,1.02 ± 0.014
13,CCATTCTCTC,0.974 ± 0.082
14,GCCCCGGGGA,1.04 ± 0.011
15,GAGTCATGTG,1.01 ± 0.037
16,ATGTTAACGG,1.01 ± 0.012
17,TTGGAGCACG,1.03 ± 0.049
18,TTTTCGCATT,1.23 ± 0.051
19,TTGATATCGG,0.979 ± 0.023
20,GGGGGTAGTA,1.01 ± 0.044
21,TAAAAATATT,0.961 ± 0.03
22,ACTGTGCTCT,1.02 ± 0.016
23,GTGGCTGTTT,1.02 ± 0.02

row,Sequence,switch fluorescence ratio
1,TTTATAAGAT,1.01 ± 0.012
2,AGAGGGGGG,0.99 ± 0.017
3,ATAAGGCCTG,1.03 ± 0.075
4,AAAATGTGGG,0.987 ± 0.041
5,AGAGTTATGT,1.019 ± 0.0068
6,AGACGCGCCA,1.05 ± 0.087
7,CGACGGTGAA,1.09 ± 0.022
8,TAGACTTTTT,0.997 ± 0.03
9,AGCCATTATT,0.976 ± 0.02
10,ATAGGTCTCA,1 ± 0.013
11,TGAAAATTCC,1.12 ± 0.073
12,GGAGAAGCGT,1.04 ± 0.031
13,GGGGGTCAAT,1.02 ± 0.04
14,ATAAACCTTG,1.16 ± 0.031
15,GTGGCGGATT,1.02 ± 0.013
16,AGGGGGGGAG,1.01 ± 0.053
17,ACTCGGGACG,0.9715 ± 0.0067
18,TATTTGGATA,1.05 ± 0.1
19,AGAATAGGCG,1.02 ± 0.022
20,TTTTTATGGA,1.03 ± 0.027
21,TCCTTGTAGT,1.11 ± 0.17
22,ACACCCTTAT,1.127 ± 0.011
23,TTTGCAATG,2.22 ± 1.6

row,Sequence,switch fluorescence ratio
1,TGGGACGTAC,1.79 ± 0.15
2,CGTTTGACCT,1.03 ± 0.026
3,GTTTCTTTAC,0.988 ± 0.058
4,TGCTACGTTT,0.991 ± 0.02
5,TAGAAAGGTC,1.073 ± 0.0025
6,TCCTAAACGG,0.988 ± 0.03
7,ATCTGATAGC,0.955 ± 0.047
8,TGTAACGAAA,1.008 ± 0.0027
9,GAATAGGGTG,1.08 ± 0.039
10,ATCTTGGTCT,1.01 ± 0.045
11,TATATCTAAA,0.973 ± 0.044
12,TATTTACGCT,1.05 ± 0.025
13,AAATTGGAAG,1.05 ± 0.078
14,TTGGGTTGGG,0.987 ± 0.018
15,CCGGTTGTGA,1.177 ± 0.0083
16,AGTAGGGTTT,0.9932 ± 0.0097
17,TTTTTGCGTC,1.03 ± 0.059
18,ATCAGGCATT,1.03 ± 0.011
19,ATCGATGGGT,1.03 ± 0.047
20,TCGGTGGGTA,0.983 ± 0.013
21,ATCGTTTTTA,1.001 ± 0.004
22,ACTTTAGATT,1.04 ± 0.0053
23,TATACACATT,1.02 ± 0.035

row,Sequence,switch fluorescence ratio
1,ATGTCGTGTG,0.9923 ± 0.0066
2,TGGGTAACAT,0.99 ± 0.031
3,CATGGTGTGT,1.01 ± 0.011
4,ATAGGTCCGG,0.9957 ± 0.0041
5,GGCATTACTG,1.06 ± 0.025
6,GTTTTTCTTA,0.978 ± 0.037
7,TTTGGATATT,1.03 ± 0.095
8,TGTTATGAGT,0.99 ± 0.036
9,CGGCTTTATA,1.02 ± 0.028
10,AGTAATTAGG,1.027 ± 0.0043
11,TACGCCTGTG,1.01 ± 0.037
12,GAGATGTTT,0.969 ± 0.04
13,AGCGGGTTAC,1.09 ± 0.06
14,TTGGACTCTT,0.977 ± 0.038
15,TATGTCCGCT,1.05 ± 0.058
16,CATATCTGAC,1.16 ± 0.056
17,AGTAGGGTGC,1.07 ± 0.12
18,TGGTTGAGTT,0.973 ± 0.021
19,CGTTTGTCGG,1.01 ± 0.059
20,CGCATTAAGG,1.11 ± 0.03
21,GCTCATAGGA,0.972 ± 0.016
22,GATGGTTTTT,1 ± 0.016
23,ACGGGGGTG,1.04 ± 0.074

row,Sequence,switch fluorescence ratio
1,TAGTGAGGCG,0.926 ± 0.0095
2,ATAGGCGGGT,1.004 ± 0.005
3,TGCAGCGTTC,1.27 ± 0.053
4,TAATAAACAA,1 ± 0.024
5,AGGTTTTATT,0.948 ± 0.023
6,CGTGTCCGGT,1.01 ± 0.043
7,TTGTAATTGC,1.29 ± 0.34
8,CAAGTTGGCT,0.987 ± 0.039
9,GGGGGGCCGC,1.03 ± 0.081
10,GCATCACGTA,1.17 ± 0.024
11,ATGACATGGG,1.04 ± 0.025
12,GGTCCAGGGC,1.08 ± 0.04
13,TCCTATTAGG,0.9888 ± 0.0054
14,AAAAATAAGC,1.03 ± 0.072
15,ACTTTTTTAA,1.004 ± 0.0029
16,CAAGCCGGGG,0.979 ± 0.021
17,TCAGGGGTTG,1.09 ± 0.17
18,CAACGGGGGT,1.03 ± 0.018
19,TAAACAGTGA,1.01 ± 0.038
20,ATGGGTGTCG,1.05 ± 0.015
21,GAAGAGGGTG,1.03 ± 0.022
22,GCGTTCGTGG,1.02 ± 0.027
23,AAGTACGTTA,1.25 ± 0.029

row,Sequence,switch fluorescence ratio
1,TTCCAGCGGT,1.03 ± 0.017
2,ATGAAATCAG,0.9991 ± 0.0044
3,GATAAAGACG,0.9893 ± 0.0059
4,ATCAGGATGC,1.04 ± 0.063
5,ATGTTACATT,1.01 ± 0.038
6,ACTTTACAAA,1.28 ± 0.036
7,AGTGACCCCT,1.06 ± 0.035
8,GGGTAATTAG,1.03 ± 0.041
9,AAGGACGCCT,1.03 ± 0.0041
10,CGCTACAATG,1.0456 ± 0.00099
11,CGTATTTAGA,0.99 ± 0.064
12,TTACCTGGCT,1.1 ± 0.059
13,CAGTAGAGGG,0.977 ± 0.028
14,CCGCTGGTGT,3.59 ± 0.29
15,GAGGCATCTC,1.02 ± 0.025
16,CGCACAGTCA,1.06 ± 0.023
17,AAGAAAAAGG,0.993 ± 0.036
18,ATATGTTGAG,1 ± 0.017
19,CAGTATTTCC,1.05 ± 0.043
